In patent publication US20120014957A1 (AbbVie / Abbott, published 2012):

Tests used:
[1] = molecular target: Recombinant Human β-NGF (human, UniProt P01138 122-241); experiment: cell-based or functional assay
[2] = molecular target: T1, NRP1 on cells (UniProt O14786 22-923, limits assumed); experiment: flow cytometry on cells, DVD-Ig at 2 ug/mL
T1 construct: whole, on cells
Protocol: (§1) Stable cell lines overexpressing a cell-surface antigen of interest or human tumor cell lines were harvested from tissue culture flasks and resuspended in phosphate buffered saline (PBS) containing 5% fetal bovine serum (PBS/FBS). Prior to staining, human tumor cells were incubated on ice with (100 μl) human IgG at 5 μg/ml in PBS/FCS. 1−5×10⁵ cells were incubated with antibody or DVD-Ig (2 μg/mL) in PBS/FBS for 30-60 minutes on ice. Cells were washed twice and 100 μl of F(ab′)2 goat anti human IgG, Fcγ-phycoerythrin (1:200 dilution in PBS) (Jackson ImmunoResearch, West Grove, Pa., Cat. #109-116-170) was added. After a 30 minute incubation on ice, cells were washed twice and resuspended in PBS/FBS. Fluorescence was measured using a Becton Dickinson FACSCalibur (Becton Dickinson, San Jose, Calif.).
(§2) The geometric mean is the n root of the multiplication product of n fluorescent signals (a1×a2×a3 . . . an). With log-transformed data the geometric mean is used to normalize the weighting of the data distribution.

[3] = molecular target: T1, NRP1 on cells; experiment: flow cytometry on cells, antibody at 2 ug/mL
Protocol: as §1, §2

B1: DVD1352 (bispecific antibody, human IgG1, kappa)
heavy: not shown
light: DIQMTQSPSSLSASVGDRVTITCRASQSISSYLAWYQQKPGKAPKLLIYGASSRASGVPSRFSGSGSGTDFTLTISSLQPEDFATYYCQQYMSVPITFGQGTKVEIKRTVAAPDIQMTQSPSSLSASVGDRVTITCRASEDIYNALAWYQQKPGKAPKLLIYNTDTLHTGVPSRFSGSGSGTDYTLTISSLQPEDFATYFCQHYFHYPRTFGQGTKVEIKRTVAAPSVFIFPPSDEQLKSGTASVVCLLNNFYPREAKVQWKVDNALQSGNSQESVTEQDSKDSTYSLSSTLTLSKADYEKHKVYACEVTHQGLSSPVTKSFNRGEC
notes: DVD-Ig; also called DVD1352H; DVD1352L
[1]
  C-Terminal VD NGF Inhibition Assay EC50: 0.226 nM
[2]
  FACS Geometric Mean N-terminal: 42

B2: AB016 (antibody, V domains shown)
VH: EVQLVESGGGLVQPGGSLRLSCAASGFSFSSEPISWVRQAPGKGLEWVSSITGKNGYTYYADSVKGRFTISADTSKNTAYLQMNSLRAEDTAVYYCARWGKKVYGMDVWGQGTLVTVSS
VL: DIQMTQSPSSLSASVGDRVTITCRASQSISSYLAWYQQKPGKAPKLLIYGASSRASGVPSRFSGSGSGTDFTLTISSLQPEDFATYYCQQYMSVPITFGQGTKVEIKR
notes: Parent antibody; also called NRP1
[3]
  FACS Geometric Mean: 338
